{"source": "patent US20240309084A1", "about": "(Novartis, published 2024)", "binders": {"B1": {"name": "anti-ASGPR-PCSK9 bispecific antibody (ASGPR_4F3_scFv-PCSK9_Fab_DANAPA_hIgG1_KiH) (bispecific antibody)", "light": "not shown", "chain": "not shown", "heavy": "QVQLVQSGAEVKKPGASVKVSCKASGYTFTSYYMHWVRQAPGQGLEWMGEISPFGGRTNYNEKFKSRVTMTRDTSTSTVYMELSSLRSEDTAVYYCARERPLYASDLWGQGTTVTVSSASTKGPSVFPLAPSSKSTSGGTAALGCLVKDYFPEPVTVSWNSGALTSGVHTFPAVLQSSGLYSLSSVVTVPSSSLGTQTYICNVNHKPSNTKVDKRVEPKSCDKTHTCPPCPAPELLGGPSVFLFPPKPKDTLMISRTPEVTCVVVAVSHEDPEVKFNWYVDGVEVHNAKTKPREEQYASTYRVVSVLTVLHQDWLNGKEYKCKVSNKALAAPIEKTISKAKGQPREPQVCTLPPSREEMTKNQVSLSCAVKGFYPSDIAVEWESNGQPENNYKTTPPVLDSDGSFFLVSKLTVDKSRWQQGNVFSCSVMHEALHNHYTQKSLSLSPGK", "notes": "also called ASGPR-PCSK9 bispecific antibody 5; bispecific ASGPR-PCSK9 Ab 5"}, "B2": {"name": "recombinant extracellular domain of human ASGPR1 with N-terminal biotinylated Avitag (receptor, UniProt P07306 62-291, looked up)", "chain": "QNSQLQEELRGLRETFSNFTASTEAQVKGLSTQGGNVGRKMKSLESQLEKQQKDLSEDHSSLLLHVKQFVSDLRSLSCQMAALQGNGSERTCCPVNWVEHERSCYWFSRSGKAWADADNYCRLEDAHLVVVTSWEEQKFVQHHIGPVNTWMGLHDQNGPWKWVDGTDYETGFKNWRPEQPDDWYGHGLGGGEDCAHFTDDGRWNDDVCQRPYRWVCETELDKASQEPPLL", "modifications": "biotin on the N-terminal Avitag", "notes": "extracellular domain; also called hASBPR1; AGSPR1; not shown: N-terminal Avitag"}, "B3": {"name": "GalNAc-labeled LDLR conjugate (LDLR193 (193-720)(N515Q)(N657Q)_SrtA_CHis) (receptor)", "chain": "not shown", "modifications": "C-terminal sortase A ligation to GGG-triGalNAc at the LPETGG motif", "notes": "also called GalNAc trimer-anti-LDLR protein conjugate"}}, "key": {"[1]": {"target": "B2", "assay": "SPR, independently immobilized ASGPR", "experimental": "(§1) ASGPR SPR experiments were performed on either Biacore T200 or Biacore 8K. The assay was optimized for Biacore SA chip in running buffer consisting of 20 mM HEPES, 300 mM NaCl, 2 mM CaCl₂), 0.01% tween-20, 2% DMSO, pH 7.4. Recombinant extracellular domain of human ASGPR1 with N-terminal biotinylated Avitag was diluted to 20 μg/mL in running buffer, and immobilized onto SA chip after it was preconditioned with at least four 60-second injections at 30 μL/min of 1 M NaCl/40 mM NaOH solution. Protein immobilization level varied from 500 RU to 3500 RU dependent on analytes' molecular weight, for targeted Rmax of 30 RUs. Direct binding of analytes to ASGR1 was observed when a dose response titration of analytes in 2% DMSO was flown over the immobilized protein. Data analysis was done on either Biacore T200 Evaluation Software or Biacore Insight Evaluation Software."}, "[2]": {"target": "T1, purified recombinant full length human PCSK9 with C-terminal biotinylated Avitag (human, UniProt Q8NBP7 31-692, biotin on the C-terminal Avi-tag)", "T1 construct": "Signal peptide removal and autocatalytic prodomain cleavage are not described for the construct; also called hPCSK9; full length hPCSK9; not shown: Avi-tag", "assay": "SPR, independently immobilized PCSK9"}, "[3]": {"target": "B2", "assay": "SPR, stepwise (single-cycle) injections of the bispecific Ab over immobilised hASGPR1", "experimental": "as §1"}, "His-ASGPR1(62-291)": {"target": "T2, His-ASGPR1(62-291) (UniProt P07306 62-291)", "T2 construct": "range 62-291; also called ASGPR1 (analyte of the sandwich SPR assay); not shown: His tag", "T2 sequence (looked up)": "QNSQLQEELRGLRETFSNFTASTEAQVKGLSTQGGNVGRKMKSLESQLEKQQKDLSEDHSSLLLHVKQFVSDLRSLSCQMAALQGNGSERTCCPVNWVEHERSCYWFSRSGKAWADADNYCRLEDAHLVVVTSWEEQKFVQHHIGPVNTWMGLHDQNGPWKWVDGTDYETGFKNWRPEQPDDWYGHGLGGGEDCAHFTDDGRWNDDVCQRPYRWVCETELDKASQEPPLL", "assay": "SPR, ternary format; panel title: hASGPR1 Binding Immobilized Bispecific Ab Bound to hPCSK9"}, "[4]": {"target": "B3", "assay": "SPR, 1:1 fit, stepwise injections over avi_deglycosylated_ASGPR1"}, "[5]": {"target": "T3, triGalNAc-PCSK9 conjugate 4 (GalNAc-labeled PCSK9) (human, UniProt Q8NBP7 31-692, triGalNAc with a short PEG linker on a single solvent exposed lysine (position not given))", "T3 construct": "It is not clear whether the PCSK9 was biotinylated before conjugation; also called triGalNAc-hPCSK9 4; GalNAc trimer-PCSK9 protein conjugate; not shown: Avi-tag", "assay": "SPR, 1:1 binding fit, stepwise injections over ASGPR1; table under FIG. 16B", "experimental": "as §1"}, "[6]": {"target": "T3, triGalNAc-PCSK9 conjugate 4 …", "assay": "SPR, 1:1 binding fit, stepwise injections over ASGPR1; table under FIG. 16B", "experimental": "as §1", "remark": "listed apart in the source"}, "[7]": {"target": "T1, purified recombinant full length human …", "assay": "SPR, 1:1 binding fit, stepwise injections over avi-PCSK9"}}, "note": "Read-outs that look alike come from different tables or passages of the source.", "data": [{"binder": "B1", "values": [{"measurement": "Kd", "setting": "[1]", "result": 3, "unit": "nM"}, {"measurement": "Kd", "setting": "[2]", "result": 0.2, "unit": "nM"}, {"measurement": "Kd", "setting": "[3]", "result": 2.73, "unit": "nM"}, {"measurement": "koff", "setting": "[3]", "result": 0.000527, "unit": "s⁻¹"}, {"measurement": "kon", "setting": "[3]", "result": 193000, "unit": "M⁻¹ s⁻¹"}, {"measurement": "Kd", "setting": "His-ASGPR1(62-291)", "result": 3.27, "unit": "nM"}, {"measurement": "koff", "setting": "His-ASGPR1(62-291)", "result": "5.93e-05", "unit": "s⁻¹"}, {"measurement": "kon", "setting": "His-ASGPR1(62-291)", "result": 18200, "unit": "M⁻¹ s⁻¹"}]}, {"binder": "B2", "values": [{"measurement": "Kd", "setting": "[4]", "result": 1.34, "unit": "nM"}, {"measurement": "Kd", "setting": "[5]", "result": 0.299, "unit": "nM"}, {"measurement": "Kd", "setting": "[6]", "result": 0.175, "unit": "nM"}]}, {"binder": "B3", "values": [{"measurement": "Kd", "setting": "[7]", "result": 156, "unit": "nM"}]}]}
